RM2 reaction level to GPX (normalized to 75 kDa band) (ratio of band density to the 75 kDa band), RM2 reaction (the value normalized to RM2 reaction to 75 kDa protein) (ratio of band density to the 75 kDa band) and absorbance data for 1 substance are collected here from patent publication US20100173334A1.

Assay [1] concerns the target haptoglobin β chain derived from cancer (serum or cells of cancer patients) (human) (UniProt P00738). Description: serum Western blot; 15 prostate cancer patients before radical prostatectomy.
Assay [2] concerns the target haptoglobin β chain derived from benign disease (serum of patients with benign prostatic disease) (human) (UniProt P00738). Description: serum Western blot, Scion image densitometry; mean of 43 patients with benign prostatic disease. For orientation: In western blotting, separated proteins are transferred to a membrane and probed.
In assay [3] the target is haptoglobin β chain derived from cancer (serum or cells of cancer patients) (human) (UniProt P00738). Nature of the assay: serum Western blot; urothelial cancer, muscle invasive or advanced (n=19).
Assay [4] has the same target. Description: serum Western blot; the same 15 patients after radical prostatectomy.
For assay [5] the target is unchanged. Nature of the assay: sandwich ELISA: RM2 captured on anti-mouse IgM plate, diluted serum, detection with rabbit anti-haptoglobin polyclonal; mean of 12 sera of prostate cancer. (In general: ELISA stands for enzyme-linked immunosorbent assay.)
Assay [6] shares this target. Description: serum Western blot; urothelial cancer, superficial (n=18).
Assay [7] concerns the target haptoglobin β chain derived from benign disease (serum of patients with benign prostatic disease) (human) (UniProt P00738). Nature of the assay: sandwich ELISA: RM2 captured on anti-mouse IgM plate, diluted serum, detection with rabbit anti-haptoglobin polyclonal; mean of 12 sera of benign prostatic disease.
Assay [8] has as its target haptoglobin β chain derived from cancer (serum or cells of cancer patients) (human) (UniProt P00738). Description: serum Western blot, Scion image densitometry; mean of 62 patients with early prostate cancer.

For the substance monoclonal antibody RM2, the RM2 reaction level to GPX (normalized to 75 kDa band) (ratio of band density to the 75 kDa band) in assay [1] was found to be 0.92; in assay [2], 0.35; in assay [4], 0.6; in assay [8] it was 0.96. For the same substance, the RM2 reaction (the value normalized to RM2 reaction to 75 kDa protein) (ratio of band density to the 75 kDa band) in assay [3] worked out at 0.96; in assay [6] it was 0.31. In addition, the absorbance at 450 nm (absorbance at 450 nm) in assay [5] was determined as 1.1; in assay [7], 0.58.
